We go through two substances from article PMC12088458.

Among the targets are DDX3X (UniProt O00571); SMARCA4 (UniProt P51532); SMARCA5 (UniProt O60264); TRRAP (UniProt Q9Y4A5); β-catenin (UniProt P35222).
Common to all, as to experiment: BioID proximity labelling, biotin pull-down, mass spectrometry
Holding throughout (settings): HEK293T, n = 3, over EV-BirA control, read off a plot

Sequence of UniProt O60264 (O60264 whole entry): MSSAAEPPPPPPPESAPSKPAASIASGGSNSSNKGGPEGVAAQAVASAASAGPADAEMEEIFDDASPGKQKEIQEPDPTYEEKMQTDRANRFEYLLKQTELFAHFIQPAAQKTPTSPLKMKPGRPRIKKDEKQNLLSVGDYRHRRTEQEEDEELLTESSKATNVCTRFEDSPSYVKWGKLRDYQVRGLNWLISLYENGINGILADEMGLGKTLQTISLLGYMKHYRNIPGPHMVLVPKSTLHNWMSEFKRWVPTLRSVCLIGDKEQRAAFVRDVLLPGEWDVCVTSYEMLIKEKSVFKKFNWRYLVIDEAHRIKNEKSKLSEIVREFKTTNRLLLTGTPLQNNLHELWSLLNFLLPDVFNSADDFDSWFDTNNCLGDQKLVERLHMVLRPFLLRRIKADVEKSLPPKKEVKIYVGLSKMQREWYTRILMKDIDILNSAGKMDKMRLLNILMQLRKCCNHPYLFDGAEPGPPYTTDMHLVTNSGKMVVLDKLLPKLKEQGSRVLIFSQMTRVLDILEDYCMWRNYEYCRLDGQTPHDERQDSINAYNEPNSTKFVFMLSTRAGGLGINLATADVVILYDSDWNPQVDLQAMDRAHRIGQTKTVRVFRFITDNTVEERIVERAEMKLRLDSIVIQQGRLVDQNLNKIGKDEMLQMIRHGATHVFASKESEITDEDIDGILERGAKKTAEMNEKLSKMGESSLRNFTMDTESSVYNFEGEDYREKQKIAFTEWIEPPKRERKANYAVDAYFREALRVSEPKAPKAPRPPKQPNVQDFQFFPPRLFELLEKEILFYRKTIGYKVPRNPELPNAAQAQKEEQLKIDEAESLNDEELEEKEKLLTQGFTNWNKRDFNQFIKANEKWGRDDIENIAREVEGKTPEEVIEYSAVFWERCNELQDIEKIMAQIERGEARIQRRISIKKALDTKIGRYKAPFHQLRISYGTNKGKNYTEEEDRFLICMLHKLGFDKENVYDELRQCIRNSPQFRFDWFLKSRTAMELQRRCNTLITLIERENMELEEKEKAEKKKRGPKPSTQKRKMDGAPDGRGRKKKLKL
Sequence of UniProt O00571 (O00571 whole entry): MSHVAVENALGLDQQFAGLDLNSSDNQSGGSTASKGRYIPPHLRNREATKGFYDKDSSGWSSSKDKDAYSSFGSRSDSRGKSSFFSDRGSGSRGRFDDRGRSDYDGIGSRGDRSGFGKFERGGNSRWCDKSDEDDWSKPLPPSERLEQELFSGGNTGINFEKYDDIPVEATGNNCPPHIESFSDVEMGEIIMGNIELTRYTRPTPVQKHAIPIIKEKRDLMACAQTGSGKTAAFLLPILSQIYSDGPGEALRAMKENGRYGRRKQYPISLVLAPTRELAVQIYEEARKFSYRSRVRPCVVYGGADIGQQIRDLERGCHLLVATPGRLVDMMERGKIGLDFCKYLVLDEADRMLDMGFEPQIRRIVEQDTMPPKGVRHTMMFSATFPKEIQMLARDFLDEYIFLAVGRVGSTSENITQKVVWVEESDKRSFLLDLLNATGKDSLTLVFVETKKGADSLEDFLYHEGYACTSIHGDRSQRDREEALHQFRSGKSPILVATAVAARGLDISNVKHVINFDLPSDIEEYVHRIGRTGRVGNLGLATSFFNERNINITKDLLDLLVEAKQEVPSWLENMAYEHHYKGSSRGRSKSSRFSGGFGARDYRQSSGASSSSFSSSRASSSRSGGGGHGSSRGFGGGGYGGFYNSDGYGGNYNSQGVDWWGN
Sequence of UniProt P35222 (P35222 whole entry): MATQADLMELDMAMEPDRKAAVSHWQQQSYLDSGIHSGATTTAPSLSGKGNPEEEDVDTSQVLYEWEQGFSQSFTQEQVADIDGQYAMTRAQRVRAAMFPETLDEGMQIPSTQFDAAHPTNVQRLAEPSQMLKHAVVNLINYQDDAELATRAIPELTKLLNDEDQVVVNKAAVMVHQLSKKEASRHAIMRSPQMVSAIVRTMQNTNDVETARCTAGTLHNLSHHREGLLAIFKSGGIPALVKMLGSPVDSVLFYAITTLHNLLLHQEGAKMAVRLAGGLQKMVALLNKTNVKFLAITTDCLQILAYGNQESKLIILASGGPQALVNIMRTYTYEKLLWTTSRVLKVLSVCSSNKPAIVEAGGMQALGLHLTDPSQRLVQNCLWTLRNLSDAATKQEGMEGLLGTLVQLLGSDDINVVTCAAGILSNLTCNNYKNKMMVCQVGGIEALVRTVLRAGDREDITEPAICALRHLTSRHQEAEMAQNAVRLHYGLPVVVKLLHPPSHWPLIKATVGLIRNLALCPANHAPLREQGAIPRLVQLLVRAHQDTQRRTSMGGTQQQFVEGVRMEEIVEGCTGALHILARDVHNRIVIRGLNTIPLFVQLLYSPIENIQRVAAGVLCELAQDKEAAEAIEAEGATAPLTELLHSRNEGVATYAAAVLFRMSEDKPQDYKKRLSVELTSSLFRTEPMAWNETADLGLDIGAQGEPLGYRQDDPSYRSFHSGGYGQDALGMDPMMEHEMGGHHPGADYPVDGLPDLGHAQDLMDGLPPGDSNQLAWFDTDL
Sequence of UniProt P51532 (P51532 whole entry): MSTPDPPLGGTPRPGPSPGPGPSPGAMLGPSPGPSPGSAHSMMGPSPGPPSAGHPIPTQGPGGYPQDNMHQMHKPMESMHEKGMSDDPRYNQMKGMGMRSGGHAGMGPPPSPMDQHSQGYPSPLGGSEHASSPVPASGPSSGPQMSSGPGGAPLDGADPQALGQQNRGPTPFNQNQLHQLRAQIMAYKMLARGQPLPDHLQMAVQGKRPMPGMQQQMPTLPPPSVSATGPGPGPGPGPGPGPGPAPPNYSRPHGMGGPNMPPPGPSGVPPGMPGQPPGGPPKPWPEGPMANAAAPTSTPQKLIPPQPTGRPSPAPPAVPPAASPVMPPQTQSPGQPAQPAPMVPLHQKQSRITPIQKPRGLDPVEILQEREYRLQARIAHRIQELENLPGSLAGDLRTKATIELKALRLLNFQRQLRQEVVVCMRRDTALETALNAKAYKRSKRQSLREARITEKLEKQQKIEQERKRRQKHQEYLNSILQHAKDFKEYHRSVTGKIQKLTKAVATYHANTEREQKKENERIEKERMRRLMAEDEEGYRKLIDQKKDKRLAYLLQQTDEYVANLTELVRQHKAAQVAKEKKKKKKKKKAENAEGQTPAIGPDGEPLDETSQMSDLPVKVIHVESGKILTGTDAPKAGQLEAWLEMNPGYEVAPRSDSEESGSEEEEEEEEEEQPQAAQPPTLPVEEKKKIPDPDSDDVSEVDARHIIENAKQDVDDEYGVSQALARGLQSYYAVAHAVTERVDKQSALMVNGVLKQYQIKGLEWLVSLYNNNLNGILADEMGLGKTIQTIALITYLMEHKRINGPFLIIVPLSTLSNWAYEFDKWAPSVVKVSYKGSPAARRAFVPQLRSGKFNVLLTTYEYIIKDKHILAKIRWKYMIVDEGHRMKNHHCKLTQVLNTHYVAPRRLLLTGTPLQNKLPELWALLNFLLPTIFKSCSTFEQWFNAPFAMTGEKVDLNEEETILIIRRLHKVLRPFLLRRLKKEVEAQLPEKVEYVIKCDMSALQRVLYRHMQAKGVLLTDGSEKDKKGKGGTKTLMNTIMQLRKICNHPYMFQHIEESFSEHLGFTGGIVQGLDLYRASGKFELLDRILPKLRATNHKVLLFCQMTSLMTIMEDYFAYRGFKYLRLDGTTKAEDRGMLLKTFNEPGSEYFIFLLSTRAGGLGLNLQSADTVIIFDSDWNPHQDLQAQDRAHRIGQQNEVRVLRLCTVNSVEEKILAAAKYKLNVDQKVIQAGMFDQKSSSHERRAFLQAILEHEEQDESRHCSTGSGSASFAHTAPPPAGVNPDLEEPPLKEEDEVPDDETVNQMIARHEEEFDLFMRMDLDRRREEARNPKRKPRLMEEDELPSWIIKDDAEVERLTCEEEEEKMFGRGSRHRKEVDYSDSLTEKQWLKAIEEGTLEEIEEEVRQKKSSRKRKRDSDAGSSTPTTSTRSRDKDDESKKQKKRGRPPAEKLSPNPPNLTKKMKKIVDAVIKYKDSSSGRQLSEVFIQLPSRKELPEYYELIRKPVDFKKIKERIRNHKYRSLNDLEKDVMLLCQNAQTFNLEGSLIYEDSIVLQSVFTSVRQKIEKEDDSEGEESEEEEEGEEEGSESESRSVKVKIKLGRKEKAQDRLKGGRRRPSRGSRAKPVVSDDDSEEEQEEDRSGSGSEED

Consider “TBX3-WT-BirA (from UniProt O15119) NPF del”, for which the other: SaintScore in the assay with DDX3X (WNT-OFF (10 nM LGK974)) was 0.32; with DDX3X (WNT-ON (10 µM CHIR99021)), 0.71; with SMARCA4 (WNT-OFF (10 nM LGK974)) it was 0; in the assay with SMARCA4 (WNT-ON (10 µM CHIR99021)), 0.67; in the assay with SMARCA5 (WNT-OFF (10 nM LGK974)), 0; with SMARCA5 (WNT-ON (10 µM CHIR99021)) it was 0.67. Moreover, the other: SaintScore amounted to 0 in the assay with TRRAP (WNT-OFF (10 nM LGK974)), 0.67 with TRRAP (WNT-ON (10 µM CHIR99021)) and 0.67 with β-catenin (WNT-ON (10 µM CHIR99021)).

As to “TBX3-WT-BirA (from UniProt O15119) RRM del”, the other: SaintScore with DDX3X (WNT-OFF (10 nM LGK974)) was 1; in the assay with DDX3X (WNT-ON (10 µM CHIR99021)), 0.65; in the assay with SMARCA4 (WNT-OFF (10 nM LGK974)), 1; with SMARCA4 (WNT-ON (10 µM CHIR99021)), 0.93; in the assay with SMARCA5 (WNT-OFF (10 nM LGK974)), 0.67; with SMARCA5 (WNT-ON (10 µM CHIR99021)), 0.67. For the same substance, the other: SaintScore with TRRAP (WNT-OFF (10 nM LGK974)) amounted to 1; with TRRAP (WNT-ON (10 µM CHIR99021)), 0.67; with β-catenin (WNT-OFF (10 nM LGK974)) it was 0.33; with β-catenin (WNT-ON (10 µM CHIR99021)), 0.67.
